Earlier results in PMC11211486.

Assays:
MepM (Escherichia coli) = MepM (Escherichia coli) (UniProt P0AFS9)
MepS (Escherichia coli) = MepS (Escherichia coli) (UniProt P0AFV4)
PBP4 (Escherichia coli) = PBP4 (Escherichia coli) (UniProt P24228)
PBP4 (Escherichia coli), sequence (P24228 21-477): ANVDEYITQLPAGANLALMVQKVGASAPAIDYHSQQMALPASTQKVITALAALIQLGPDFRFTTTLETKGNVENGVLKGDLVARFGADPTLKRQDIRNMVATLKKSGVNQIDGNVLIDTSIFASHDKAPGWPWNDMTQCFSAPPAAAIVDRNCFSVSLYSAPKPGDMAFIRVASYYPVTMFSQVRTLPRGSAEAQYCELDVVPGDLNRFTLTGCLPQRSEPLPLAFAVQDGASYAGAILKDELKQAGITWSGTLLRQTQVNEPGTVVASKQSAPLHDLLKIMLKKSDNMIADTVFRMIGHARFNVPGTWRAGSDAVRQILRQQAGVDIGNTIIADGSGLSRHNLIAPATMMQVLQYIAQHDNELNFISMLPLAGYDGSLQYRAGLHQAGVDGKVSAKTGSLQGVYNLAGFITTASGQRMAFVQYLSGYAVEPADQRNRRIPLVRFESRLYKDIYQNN

NlpI, sequence (C4ZSQ4 19-294): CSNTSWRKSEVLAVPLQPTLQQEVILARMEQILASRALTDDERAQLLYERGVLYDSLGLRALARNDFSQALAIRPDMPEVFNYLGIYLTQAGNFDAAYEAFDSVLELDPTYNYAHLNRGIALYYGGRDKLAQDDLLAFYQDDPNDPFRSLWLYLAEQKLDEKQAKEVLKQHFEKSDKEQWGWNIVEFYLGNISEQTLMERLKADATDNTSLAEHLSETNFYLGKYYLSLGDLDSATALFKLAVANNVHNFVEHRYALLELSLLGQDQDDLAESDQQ
MepM (Escherichia coli), sequence (P0AFS9 whole entry): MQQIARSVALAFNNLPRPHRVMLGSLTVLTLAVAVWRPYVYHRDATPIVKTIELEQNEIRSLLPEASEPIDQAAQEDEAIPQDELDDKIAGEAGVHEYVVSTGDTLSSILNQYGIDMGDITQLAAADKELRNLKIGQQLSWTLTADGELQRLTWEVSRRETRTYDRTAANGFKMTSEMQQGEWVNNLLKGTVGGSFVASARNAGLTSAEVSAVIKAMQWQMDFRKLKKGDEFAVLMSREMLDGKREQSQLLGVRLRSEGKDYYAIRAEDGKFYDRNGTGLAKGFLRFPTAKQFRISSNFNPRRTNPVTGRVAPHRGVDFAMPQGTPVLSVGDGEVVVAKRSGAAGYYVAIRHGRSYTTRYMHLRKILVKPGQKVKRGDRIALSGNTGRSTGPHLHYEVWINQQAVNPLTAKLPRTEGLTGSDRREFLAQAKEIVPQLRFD
MepS (Escherichia coli), sequence (P0AFV4 27-188): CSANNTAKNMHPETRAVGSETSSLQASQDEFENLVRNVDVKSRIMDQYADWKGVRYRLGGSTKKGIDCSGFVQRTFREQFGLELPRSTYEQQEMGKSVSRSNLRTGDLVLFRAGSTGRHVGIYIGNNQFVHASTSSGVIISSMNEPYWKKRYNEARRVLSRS

- Kd (MepM (Escherichia coli)): 150 nM
- Kd (MepS (Escherichia coli)): 150 nM
- Kd (PBP4 (Escherichia coli)): 150 nM
Substance: NlpI (from UniProt C4ZSQ4)
